Experimental data as given in publication PMC9398157.
pEC50, pKd: −log10 of the molar value. Several values for one entry are separate records, joined by “and”; a condition that tells them apart may be missing. Equal values may be shown once. Read-outs that look alike come from different tables or passages of the source.

What was measured:
[1] = target: DR5 on Colo205 and H-EMC-SS cells (Homo sapiens) (UniProt O14763)
[2] = target: Death receptor 5 (human DR5), as used in SPR, Octet and ELISA (human) (UniProt O14763); experiment: SPR
[3] = target: Death receptor 5 (human DR5), as used in SPR, Octet and ELISA (human) (UniProt O14763); experiment: SPR; remark: listed apart in the source
[4] = target: DR5 on Colo205 and H-EMC-SS cells (Homo sapiens) (UniProt O14763); experiment: flow cytometry on cells
[5] = target: DR5 on Colo205 and H-EMC-SS cells (Homo sapiens) (UniProt O14763); experiment: flow cytometry on cells; remark: listed apart in the source

pEC50 [4]: 9.70 | pEC50 [5]: 10.14
Substance: IGM-8444 (antibody)
cytotoxicity on Colo205 cells, IC50 (CellTiter-Glo viability after 24 hours) [1]: 1.1 ng/mL and 1.3 pmol/L | cytotoxicity on H-EMC-SS cells, IC50 (CellTiter-Glo viability after 24 hours) [1]: 0.32 ng/mL and 0.37 pmol/L | pKd [2]: > 10.96 | pKd [3]: 7.07
